Blank lines part the entries; values can stand above or below the molecule they belong to.
How the values were obtained:
pEY = test: In vitro kinase library screen: activity towards pEY; assay type: biochemical; conditions: 5 ul of expressed protein
Experimental: Proteins were produced in an in vitro transcription and translation reaction. […] The unbound components of the reaction containing endogenous kinases were removed by three washes with TT-buffer (25 mM Tris-HCl buffer pH 7.4 and 0.004% Triton), two five minutes washings with high-salt wash buffer (25 mM Tris-HCl buffer pH 7.4, 0.004% Triton, 1M NaCl and 5 mM DTT) and 3 more washes with TT-buffer. To these immobilized and purified proteins a tyrosine kinase substrate, 5 nM pEY (poly Glu-Tyr, Sigma, MO), was added in a 50 μl reaction solution containing 5 mM MgCl2, 5 mM MnCl2, 100 μM ATP, 25 mM Tris-HCl buffer pH 7.4, 0.05 mM Na3VO4, 0.004% TritonX-100, 2 mM DTT and EDTA-free protease inhibitor (Roche Molecular Biochemicals). This mixture was incubated with shaking at room temperature overnight to allow phosphorylation of the pEY substrate by the immobilized kinases. Following this incubation, 45 μl of this mixture was transferred to a streptavidin or avidin-coated NPT IPR plate coated with biotinylated anti-phosphotyrosine antibody (PY20, Zymed labs, CA) followed by incubation for 30 minutes at room temperature to allow the binding of the phosphorylated pEY substrate to the PY20 coated NPT plate. Following this binding step, 50 ng Sulfo-TAG labeled anti-phosphotyrosine in buffer containing 25 mM Tris-HCl buffer pH 7.4, 5 mM MgCl2, 0.05 mM Na3VO4, 0.004% TritonX-100, 2 mM DTT and 0.05% IgG was added followed by incubation at room temperature for 30 mm. The unbound reagents were removed by one time washing with water, and the TAG label was detected in presence of 150 μl IPR assay buffer (0.4 mM Gly-Gly buffer, pH 7.8, 1 mM EDTA, 0.1 M TPA). The ECL signals were measured using an imaging plate reader.
(§1) Proteins were produced in an in vitro transcription and translation reaction as described in the Materials and Methods. […] The reaction was stopped by mixing with BB2 buffer. Biotinylated proteins from 50 μl of the mixture (representing 0.5 μl to 5 μl of TnT reaction) were immobilized onto streptavidin or avidin coated NPT-IPR plates by shaking at room temperature for 45 min. The activity of the immobilized protein towards pEY or autophosphorylation was further assayed by the methods described in examples 7 and 8.

[1] = system: autophosphorylation (phosphotyrosine); test: In vitro kinase library screen: autophosphorylation; assay type: biochemical
Experimental: Proteins were produced from DNA plasmids of Mock Luciferase, Promega, tyrosine kinase clone Spleen Tyrosine kinase (SYK, IMAGE ID# 3870426) and Eph receptor-A7 (EphA7, IMAGE ID# 3991628) (Incyte Genomics, CA) and immobilized on streptavidin or avidin coated NPT-IPR plates as described in the Example 7. To promote autophosphorylation in these immobilized and purified proteins, Mn++ ions were added in a 50 μl reaction containing 5 mM MgCl2, 5 mM MnCl2, 100 μM ATP, 25 mM Tris-HCl buffer pH 7.4, 0.05 mM Na3VO4, 0.004% TritonX-100, 2 mM DTT and EDTA-free protease inhibitor (Roche Molecular Biochemicals). This mixture was incubated with shaking at room temperature overnight to allow autophosphorylation. Following this incubation, wells were washed 2 times with TT-buffer and 2 times with water. Following this step, 50 ng Sulfo-TAG labeled anti-phosphotyrosine in buffer containing 25 mM Tris-HCl buffer pH 7.4, 5 mM MgCl2, 0.05 mM Na3VO4, 0.004% TritonX-100, 2 mM DTT and 0.05% IgG in a final volume of 50 μl was added followed by incubation at room temperature for 45 min. The unbound reagents were removed by one time washing with water, and the TAG label was detected in presence of 150 μl IPR assay buffer (0.4 mM Gly—Gly buffer, pH 7.8, 1 mM EDTA, 0.1 M TPA). The ECL signals were measured using an imaging plate reader.
as §1

[2] = system: pooled phosphopeptide:BSA conjugates (Pools A-D); test: Coded multiplex phosphopeptide binding assay with pooled peptide:BSA conjugates on 4 spots
From the text: To prepare the Multi-Spot IPR plates, in this example we made use of pools of the peptide:BSA conjugates to coat each of 4 spots per well in a 96 well plate. To achieve this we made the following pools; • Pool A; EGFR-pTyr1148, IkBa-24ppC, Myc-p58Tp62S. • Pool B; EGFR-pTyr992, EGFR-pTyr1148, Smad3C. • Pool C; EGFR-pTyr1068, IkBa-24ppC, Smad3C. • Pool D; EGFR-pTyr992, EGFR-pTyr1068, Myc-p58Tp62S.
This combination of the various peptides results in any single peptide being present in two pools. Each of these four pools is then spotted on to a unique spot in a 4 spot array. In this way any single binding protein with specificity for only one of the peptides would bind to two spots; the identity of the two spots would allow the identification of the peptide involved in the binding reaction.
Typically approximately 120 fmole of peptide:BSA conjugate in 0.25 μl was deposited on each spot of a 4-spot multi-array IPR plates using a BioDot Dispenser (Bio-Dot Inc., vIrvine Calif.). At this stage, the plates were dried then used or stored under desiccated condition. A few hours prior to usage, the plates were rehydrated and blocked with 3% BSA, in PBS.
To test the system the following EST clones IMAGE # 3491843, 4237375, 4398016, 4419252, 3872466, 3907115 were obtained. These clones express the following genes βTRCP1, βTRCP2, Grb2, PLCγ, CBP and Shc1, respectively. […] These DNAs were used to produce proteins as described in the Materials and Methods. Proteins were transferred to a well of the 4 spot peptide-coated and BSA blocked ECL plates. The binding assay (using Sulfo-TAG labeled streptavidin as a detection agent) was carried our according to the procedures described in Example 11.

B1: 3873932: IMAGE clone protein: MATK, megakaryocyte-associated tyrosine kinase (protein, UniProt P42679 1-507, looked up)
Megakaryocyte-associated …: MAGRGSLVSWRAFHGCDSAEELPRVSPRFLRAWHPPPVSARMPTRRWAPGTQCITKCEHTRPKPGELAFRKGDVVTILEACENKSWYRVKHHTSGQEGLLAAGALREREALSADPKLSLMPWFHGKISGQEAVQQLQPPEDGLFLVRESARHPGDYVLCVSFGRDVIHYRVLHRDGHLTIDEAVFFCNLMDMVEHYSKDKGAICTKLVRPKRKHGTKSAEEELARAGWLLNLQHLTLGAQIGEGEFGAVLQGEYLGQKVAVKNIKCDVTAQAFLDETAVMTKMQHENLVRLLGVILHQGLYIVMEHVSKGNLVNFLRTRGRALVNTAQLLQFSLHVAEGMEYLESKKLVHRDLAARNILVSEDLVAKVSDFGLAKAERKGLDSSRLPVKWTAPEALKHGKFTSKSDVWSFGVLLWEVFSYGRAPYPKMSLKEVSEAVEKGYRMEPPEGCPGPVHVLMSSCWEAEPARRPPFRKLAEKLARELRSAGAPASVSGQDADGSTSPRSQEP
HTS signal (pEY): 47,477 | ECL signal [1]: 27,372

B3: 3673003: IMAGE clone protein: Ephb3, Eph receptor B3 (protein, UniProt P54754 30-993, looked up)
Ephrin type-B receptor 3: LEETLMDTKWVTSELAWTSHPESGWEEVSGYDEAMNPIRTYQVCNVRESSQNNWLRTGFIWRREVQRVYVELKFTVRDCNSIPNIPGSCKETFNLFYYEADSDVASASSPFWMENPYVKVDTIAPDESFSRLDAGRVNTKVRSFGPLSKAGFYLAFQDQGACMSLISVRAFYKKCASTTAGFALFPETLTGAEPTSLVIAPGTCIANAVEVSVPLKLYCNGDGEWMVPVGACTCATGHEPAAKESQCRACPPGSYKAKQGEGPCLPCPPNSRTTSPAASICTCHNNFYRADSDSADSACTTVPSPPRGVISNVNETSLILEWSEPRDLGGRDDLLYNVICKKCRGSSGAGGPATCSRCDDNVEFVPRQLGLTERRVHISHLLAHTRYTFEVQAVNGVSGKSPLPPRYAAVNITTNQAAPSEVPTLHLHSSSGSSLTLSWAPPERPNGVILDYEMKYFEKSKGIASTVTSQKNSVQLDGLQPDARYVVQVRARTVAGYGQYSHPAEFETTSERGSGAQQLQEQLPLIVGSTVAGFVFMVVVVVIALVCLRKQRHGPDAEYTEKLQQYIAPGMKVYIDPFTYEDPNEAVREFAKEIDVSCVKIEEVIGAGEFGEVCRGRLKLPGRREVFVAIKTLKVGYTERQRRDFLSEASIMGQFDHPNIIRLEGVVTKSRPVMILTEFMENCALDSFLRLNDGQFTVIQLVGMLRGIAAGMKYLSEMNYVHRDLAARNILVNSNLVCKVSDFGLSRFLEDDPSDPTYTSSLGGKIPIRWTAPEAIAYRKFTSASDVWSYGIVMWEVMSYGERPYWDMSNQDVINAVEQDYRLPPPMDCPTALHQLMLDCWVRDRNLRPKFSQIVNTLDKLIRNAASLKVTASAPSGMSQPLLDRTVPDYTTFTTVGDWLDAIKMGRYKESFVGAGFASFDLVAQMTAEDLLRIGVTLAGHQKKILCSIQDMRLQMNQTLPVQV
HTS signal (pEY): 1,174 | ECL signal [1]: 10,540

Other lines, results leading:

Code (pattern of positive spots) [2]: A, B | Peptide determined from code [2]: EGFR-pTyr1148 | ECL signal, spot A ([2]; Pool A, EGFR-pTyr1148, IkBa-24ppC, Myc-p58Tp62S): 260 | ECL signal, spot B ([2]; Pool B, EGFR-pTyr992, EGFR-pTyr1148, Smad3C): 318 | ECL signal, spot C ([2]; Pool C, EGFR-pTyr1068, IkBa-24ppC, Smad3C): 24 | ECL signal, spot D ([2]; Pool D, EGFR-pTyr992, EGFR-pTyr1068, Myc-p58Tp62S): 26
B2: 3907115: IMAGE clone protein: Shc1 (protein)
chain: MNKLSGGGGRRTRVEGGQLGGEEWTRHGSFVNKPTRGWLHPNDKVMGPGVSYLVRYMGCVEVLQSMRALDFNTRTQVTREAISLVCEAVPGAKGATRRRKPCSRPLSSILGRSNLKFAGMPITLTVSTSSLNLMAADCKQIIANHHMQSISFASGGDPDTAEYVAYVAKDPVNQRACHILECPEGLAQDVISTIGQAFELRFKQYLRNPPKLVTPHDRMAGFDGSAWDEEEEEPPDHQYYNDFPGKEPPLGGVVDMRLREGAAPGAARPTAPNAQTPSHLGATLPVGQPVGGDPEVRKQMPPPPPCPGRELFDDPSYVNVQNLDKARQAVGGAGPPNPAINGSAPRDLFDMKPFEDALRVPPPPQSVSMAEQLRGEPWFHGKLSRREAEALLQLNGDFLVRESTTTPGQYVLTGLQSGQPKHLLLVDPEGVVRTKDHRFESVSHLISYHMDNHLPIISAGSELCLQQPVERKL

HTS signal (pEY): 184,534 | ECL signal [1]: 301,418
B4: 3978518: IMAGE clone protein: Hck, hemopoietic cell kinase (protein, UniProt P08103 2-524, looked up)
Tyrosine-protein kinase HCK: GGRSSCEDPGCPRSEGRAPRMGCVKSRFLRDGSKASKTEPSANQKGPVYVPDPTSSSKLGPNNSNSMPPGFVEGSEDTIVVALYDYEAIHREDLSFQKGDQMVVLEEAGEWWKARSLATKKEGYIPSNYVARVNSLETEEWFFKGISRKDAERHLLAPGNMLGSFMIRDSETTKGSYSLSVRDFDPQHGDTVKHYKIRTLDSGGFYISPRSTFSSLQELVLHYKKGKDGLCQKLSVPCVSPKPQKPWEKDAWEIPRESLQMEKKLGAGQFGEVWMATYNKHTKVAVKTMKPGSMSVEAFLAEANLMKSLQHDKLVKLHAVVSQEPIFIVTEFMAKGSLLDFLKSEEGSKQPLPKLIDFSAQISEGMAFIEQRNYIHRDLRAANILVSASLVCKIADFGLARIIEDNEYTAREGAKFPIKWTAPEAINFGSFTIKSDVWSFGILLMEIVTYGRIPYPGMSNPEVIRALEHGYRMPRPDNCPEELYNIMIRCWKNRPEERPTFEYIQSVLDDFYTATESQYQQQP
